Measurements taken from the DeepSol protein solubility set.

assay: soluble on expression in E. coli; label from the status in PepcDB or PDB records

Row | Sequence | soluble on expression in E. coli
1 | MAHHHHHHMKNFFILHLRNNYSIFLNKPLQVFTLNVKLNSHVKVNYKHELLTYEFRKITYVKKKKKKSYHNCDGRYITTLNKTININEKYSKLKNDGLLNSTPDNHIKDNIIKEDLLYRKNNEKENEEVIKSNIDENKNVHMNDQNEQNKHCYNKLLIESCCHIDKDVKKSLLEIFQYKEFTDVQRIVYDNIIKEKKQNDLLIQAKTGTGKTIAYLLLSINDIIKNKILSVHTLIIVPTRELANQIYNECKLLLTYKHNINVLTLTGGIKRRDDQLNIRRIKPDIIICTVGRLLDHFESTYLFNTLFENLKMLIIDEADQLLSTGYENDIHRLLTYLPSNRRNILLSATLGYNLDEIRKKMCKSDYIYLNCVKDISKHTSDQLIQYVLFHKAIDTTIILYNLLIEHMRLNQFTYKIIVFFPTARATSFYAQFFINQLKISVYEIHRKKEMAHRQITANRFSMESVGILFTSDISSRGLNYPDITLIIQVNTPISREQYIHRVGRTARSNKKGMAIILLNEADELFYQEIKDLNIQKLNAQNYTLKNTNLSNYLSTWMSNTQLLYLAYAYYSSILRFYKTKYTHLKINDDEIIDAVNNMLLSTGLVEQPYISRNLATTLNMQNNVKLKIRKDLDDILLL | not soluble
2 | MAHHHHHHMKNKNKYDYLLKLLLVGDSSVGKSSILCRYSDNQFEEKVLSTIGIDFKVKYLKIDNKTIKVGIWDTAGQERFRTLTSAYYRNAHAIILVYDCTVRESFENLDVWINEIDKYSTNKNAIKMLVANKIDKPNHEVTKDEGKNFAFENNMLFCETSAKNDINITYCFEELIQQILNNPSLLELSIVTKNLKLGKKEESRSNCAC | soluble
3 | MAHHHHHHMKRAAKGEVVFDEDIRRLCDKGVNNLPGWSLAAAEVKAAVRNSTKHFLDAAAEEARNPTTTSAPEKLEGCYKSVHNARRGHAVELPDGVERTKTGTGMGMHEGRPEQSWSYKKADDAIEKNDGVQQFGAAPPVLMVLTLDKGWPYSWNRIQDLPKDVFVNCEVDRVWQTVKGDVTAWFSPHGGTDFTPKQRVLIGTPGIGKSMAAGSYLLYQLLHCDAKKLQVVVHRFGGGDAYVSDKITRAVTKYSDEDMCISELRRLRGYGRNVYIIYDVAKEGTPPPRHFAPTSGWGMIVVSFPKVTNYDEWEKQLHAARIIMNCPDESDVRAMCIWKEYNGQVEEEADYWKKVKDRMDKVGPILRFIFDN | not soluble
4 | MAHHHHHHMKRFFKSDGTPYNRDAANNLYGSEHTHRGGVEALSEGVAAGQYGEHKPRAIMFVNKRPVEIIPQEENLLEVLEREGIRVPKFCYHPILSVAGNCRMCLVQVDGTQNLVVSCATVALPGMSIITDSRLVRDAREGNVELILINHPNDCPICEQATNCDLQNVSMNYGTDIPRYKEDKRAVQDFYFDPQTRVVLNRCIHCTRCVRFLNEHAQDFNLGMIGRGGLSEISTFLDELEVKTDNNMPVSQLCPVGKIYLGDADENNLIAEQLDVSYESECGDRGTVTLGK | not soluble
5 | MAHHHHHHMKSATMSATHALRDKWFVSFLPLLTADMVNTDYKGNWQLAAQERTQKLDWITSVEELWSTMNSLPKVHQLGMGSTLIFARNNKEPPSYEAYPNGSRIMINLLKPPTTDAGLELVLAVVMGETAAEKASDGKPVCDVLRIAARPSREHSEQIRVEVWLSDSTRSHAVAEFLAEAMRAKGLAANSYNIAEASFDAAAPGKDKKVLAASTMPSPSSPPMVKD | soluble
6 | MAHHHHHHMKVENSKMEVKREQSYSNEDEEINEEDLNWWEQENLRIAMKGERRWETLAHNGVLFPPEYEPHGIPIFYDGREFKMTPEEEEVATMFAVMKEHDYYRMEVFRRNFFESWREILGKRQHPIRRLELCDFEPIYQWYLVQREKKLSRTKEEKKAIKEKQDAEAEPYRYCVWDGRREQVANFRVEPPGLFRGRGKHPLMGKLKVRVQPEDITINIGETAEVPVPPAGHKWAAVQHDHTVTWLAMWRDNVAGNMKYVMLAPSSSVKGQSDMVKFEKARKLKDKVDDIRASYMEAFKSNDLHVAQRAVAMYFIDRLALRVGNEKGEDEADTVGCCSLRVEHIQLMPDNIVRFDFLGKDSIRYQNDVAVLPEVYALLQRFTCRKSPGMDIFDQLNPTQLNDHLKSFMDGLSAKVFRTYNASITLDRWFKEKPVDPKWSTADKLAYFNKANTEVAILCNHQKSVSKNFKLQMMQLTTKSEYTRKTLELLEKAEVTAKKKSVEEAAKEFLEEQDRMQREWLESYGTEEQKKEFEEIVAKRAAPRVRSEKKSSSGTKKAKSASGKTRAATKKKSAKKSGKASSKKAARKSSKKAPKRSKEEDEDDVPLMSMAAKTKKTAGVKRQRAVKVASDDDDVPLAALRV | not soluble
7 | MAHHHHHHMLESFEFDQERKEALNTVAELIASTIEGAESQDVHDVLSSSLHLPHNWQEIVQKRAEQRRKLSATFTLFCEETIATPSTDGNAALDISEAPATCFLPELRPKTMPPVTTSATRGFECPSCGNHWDVVDARKSLRNSNTSSAVRELSNADVGFCPVCEDI | not soluble
8 | MAHHHHHHMLHEVNVGTSDIVRGGHGGDEAATPQQPPALSVVEEHIQRIRLELCGQRHPPSGYASAIAIPSTAAGLDRVAVLVDLLDQVRYWAIEEAFTFKDEPSRLAETEAPEAVVACLCSQRPQLVAQALRVVQPMLRHRQTAYETRRVMVDVWAYREQVNSMVPLPEGLDPLLAMLAEFLEQHKGVLPVLVEALSTATAALVQDGTACVGSDNGNDDNLDGGVSLRRRVAPLVVALHETTLVYQMESAMRRHPDAVPLQVEGVSFCAALVDLPWPFEAEVDSEEGTPTSLADILAHSDGVLDVLHGALRRHRQNLCIARGVLHVWRVCAQHPANRVPLLQHGAYAGALQQLRGVLPYAVGVWREIAETVGYFIPLLDALQRRSLALTLRELLLRRPQLEMLELILALLLSLLMVV | not soluble
9 | MAHHHHHHMLIPVRCYSCGKVVGHLYELYQELLNQDHTEAEALNALRLSRMCCRRMILSHIDLADDLLPYSVPVVGSMPLINPVQGPVPRRQ | not soluble
10 | MAHHHHHHMLLQFNWDRLDVTAAEAICALLNAKLEEELLLRRAANQSVNASGGQETASADAACGVESLRVTNIEWGNVPPFIEVVELDDAVEFASSTPLSFEAPLGQQDFGGTISSGTCGGGATTPFFLRPSPASSVTMMDGISETDSGIVGNHGGMPTPSVPPASGIRPGNGQSPINSSSAPVKDAFAAYFGPKGLYVCLHVTYGGPMRVSVASVLRHDVPLGPIAIPVRMPLQLHFSKMDMDFHLCINLHRNTCRVWMEPGKLFTSPLNRMNVMAVFGERRPSSQHMAEFPTSGQNAGDDLDTSDAWTHVGSSRIGSDDAEDMVFIDESIISQFVLKEVRAILQEKIIYPHSVVVPLSL | not soluble
11 | MAHHHHHHMLLVGFKPCEIVFLVDTLLGSGVSRLPQLFSFFFGGGVHSCARQRKSRKGFAPPNWHPLPRPRRLTAFPYHSQVVAHKRVVRRLLTINNLVFNCCGNLFLPICTLHPKFPFTNDLSQYVVTCEFPPLQLHFSTQAPKNCFRKQLDLVLCSINVAVDVFHPALLRTFRWIC | soluble
12 | MAHHHHHHMLNLSSLLISKKNVKDDGNNSSENEVGGNNDVSSLNNDCVKIKLINMQEYKTKKLLDERKNVNVWSANNKKDNDKKEKKKEKKNEQPKKKESVVTKPKAVGENDTKKIENKDIENKNVTPKKLFVPSAIKQQQQKEALKNKQTPKKEEELFPDLIQSKKSNKTEKEKKKTQPAKKSKKEKADKKVQESTKEQENEFPQIEEIEKIHFNIFDFIDMEKQTYEHIVRNSEKVLQKYKNRSKFVDSMIMCN | not soluble
13 | MAHHHHHHMLRDELPPEKGQQSFSLWSRILRSIDGCKLEIVLDDQTEADKIKVVDIYDKVSERFPLYSWKEPVKGRVVVTPTGSSYSHQGVVVELIGVASTFREVESRVVFLRQERQFEPDTLNQSTPFEFTFSAPKEHESYHGIYARVRYFVQATVKQRIKSPSVKEEVWVHRVDTALSESQTDASAHMNYFRETCFGPESIAMNVGVDNVLHIEFRYDKKIFHLAERVLGKVEYKVADMDIAYGEVGLVRKEFLAPGQTDETMESETLQKFEIMDGTPIVEEVVPIRLYLKSVPRLTPSYMDVENLFSVRYFLNLVLVNQEGKRYFKQQEIQLYRRTGQERSATSFNSGLPVTPASGDVDAKGGWSA | not soluble
14 | MAHHHHHHMLRMKLVTYFEGFFFMATANDLPAAFRGSNCLQVQVNSKSGSKRVIRLVFIRHGQSVWNSLFNSFDATWPVRAVKAMVNEAVYFFTNPFDSVIVDSPLSEKGRSEAQELARFVRSAKGQVCFDASCSLIVCSNLRRAMETALVGMQPRIVSTGERIVVDSSLQEGSRNIDAQSLSTEPGKIVPCKMGELATPQLLGTAFDPHLNGGNRTAKRNVYDRMDEFVQHLFGGVKSNPYVPASGAESGNSALKEVIVVGHSGYFRCFFKRFLPSSSRHVAKTKKLKNCAVVSFDLVRNESTGEVYIEESTVSVLYKGF | not soluble
15 | MAHHHHHHMLRRTARRAMGNSRFSGSKERDRIEQERRRRLLYDAAGNLQLGGLLLMMYDDFKKPAAIGLGMVAFLYGYNRLVVRLSREEEAEGLQLDAKSEAVARQTGKLKADRYLVKPNRQIDDPDFLNIPAFGGRGVSSSKLLSDDSVSGGALHSERKRS | not soluble
16 | MAHHHHHHMLSLCKSLSSDAPTRTKTRVVLSMFNASHVDELLASTTRTLQRSQVLLDERRSVIQSQQGLPPMFCVASSSAASTSVGSSAAAPYASASSSFADTVRSLQSLSELRSYVEATAEMMKRVREEGMEPSPAMQQRRARGQDFALLQSMTRGLRGAMTAAWQMSETTAALWAFSTEACGGAEEAAAAEDAASAAAGSTLCAVPGARSGGTRSSGAQLTSTLIFSAFCVDLAIAAPRAASAVAAELESVFEPSSDNGRPSSLVSEWMRDGNVKLSALLRDVAALLPPPVKTRLVARLADVLFRPSPALPRSPKESSGHPLGCELLSGGQLLLPSLDYYLLEQYPSSLASRWFLQPLQATAEHLRADYYASADQFHVQCRWLLRLVLTLLYACQSAALPTSTASRPPLERRLRTAQRLYDAWLIPLEKTFGNGTARHGMSVSFNRALVQPHGHMVERLLFTSSPASGVSGVSKVVQQSREWSGILYSAQYRLLLILEKLAHSEVAQVNGTSSTSAKQRTYETMLRQNGGKVSVSLLQTLAEDKQLLLDETPSRSPDGHRLYKLHDGLLDDSGKAVFVYLDDGALFTKVGRARAFQRVKSVEDIFKPLQ | not soluble
17 | MAHHHHHHMLYLKEIELGNYYICNLNDYPSEHCVVDYDPNKRIKFLCPIVHNEGEHMNTYNSSYCFTYEGIKDRLIIRNNEEPIYTTLPGIILENQILYDRYNLGIYIMPFKLEADMSIVCVCDTKKEYKGITPYIKINIKNSNNVLGVGSSDEYIKGCDFGNNKGKHQFLTSPQSHEHRSVCAILANPGDIVGINCINYNEDDPQNNDVTLEPSNCFSTVSFSLYTFSFVKMNINNILPDAKYYPETSAFPKDPNFKKFSTTSYLWIPANVPQAFFLVCSCKYAKGEGTAMYHVSSSTLEV | not soluble
